B1: 1-phosphatidylinositol 4,5-bisphosphate phosphodiesterase gamma-1 (Rattus norvegicus (Rat)), P10686 (parent)
chain: MAGVGTPCANGCGPSAPSEAEVLHLCRSLEVGTVMTLFYSKKSQRPERKTFQVKLETRQITWSRGADKIEGSIDIREIKEIRPGKTSRDFDRYQEDPAFRPDQSHCFVILYGMEFRLKTLSLQATSEDEVNMWIKGLTWLMEDTLQAATPLQIERWLRKQFYSVDRNREDRISAKDLKNMLSQVNYRVPNMRFLRERLTDFEQRSGDITYGQFAQLYRSLMYSAQKTMDLPFLETNTLRTGERPELCQVSLSEFQQFLLEYQGELWAVDRLQVQEFMLSFLRDPLREIEEPYFFLDELVTFLFSKENSVWNSQLDAVCPETMNNPLSHYWISSSHNTYLTGDQFSSESSLEAYARCLRMGCRCIELDCWDGPDGMPVIYHGHTLTTKIKFSDVLHTIKEHAFVASEYPVILSIEDHCSIAQQRNMAQHFRKVLGDTLLTKPVDIAADGLPSPNQLKRKILIKHKKLAEGSAYEEVPTSVMYSENDISNSIKNGILYLEDPVNHEWYPHYFVLTSSKIYYSEETSSDQGNEDEEEPKEASGSTELHSSEKWFHGKLGAGRDGRHIAERLLTEYCIETGAPDGSFLVRESETFVGDYTLSFWRNGKVQHCRIHSRQDAGTPKFFLTDNLVFDSLYDLITHYQQVPLRCNEFEMRLSEPVPQTNAHESKEWYHASLTRAQAEHMLMRVPRDGAFLVRKRNEPNSYAISFRAEGKIKHCRVQQEGQTVMLGNSEFDSLVDLISYYEKHPLYRKMKLRYPINEEALEKIGTAEPDYGALYEGRNPGFYVEANPMPTFKCAVKALFDYKAQREDELTFTKSAIIQNVEKQDGGWWRGDYGGKKQLWFPSNYVEEMINPAILEPEREHLDENSPLGDLLRGVLDVPACQIAIRPEGKNNRLFVFSISMPSVAQWSLDVAADSQEELQDWVKKIREVAQTADARLTEGKMMERRKKIALELSELVVYCRPVPFDEEKIGTERACYRDMSSFPETKAEKYVNKAKGKKFLQYNRLQLSRIYPKGQRLDSSNYDPLPMWICGSQLVALNFQTPDKPMQMNQALFMAGGHCGYVLQPSTMRDEAFDPFDKSSLRGLEPCVICIEVLGARHLPKNGRGIVCPFVEIEVAGAEYDSTKQKTEFVVDNGLNPVWPAKPFHFQISNPEFAFLRFVVYEEDMFSDQNFLAQATFPVKGLKTGYRAVPLKNNYSEDLELASLLIKIDIFPAKENGDLSPFSGTSLRERASDASSQLFHVRAREGSFEARYQQPFEDFRISQEHLADHFDSRERRAPRRTRVNGDNRL
B2: 1-phosphatidylinositol 4,5-bisphosphate phosphodiesterase gamma-1 (Rattus norvegicus (Rat)), P10686 (parent)
chain: B1 chain
partner: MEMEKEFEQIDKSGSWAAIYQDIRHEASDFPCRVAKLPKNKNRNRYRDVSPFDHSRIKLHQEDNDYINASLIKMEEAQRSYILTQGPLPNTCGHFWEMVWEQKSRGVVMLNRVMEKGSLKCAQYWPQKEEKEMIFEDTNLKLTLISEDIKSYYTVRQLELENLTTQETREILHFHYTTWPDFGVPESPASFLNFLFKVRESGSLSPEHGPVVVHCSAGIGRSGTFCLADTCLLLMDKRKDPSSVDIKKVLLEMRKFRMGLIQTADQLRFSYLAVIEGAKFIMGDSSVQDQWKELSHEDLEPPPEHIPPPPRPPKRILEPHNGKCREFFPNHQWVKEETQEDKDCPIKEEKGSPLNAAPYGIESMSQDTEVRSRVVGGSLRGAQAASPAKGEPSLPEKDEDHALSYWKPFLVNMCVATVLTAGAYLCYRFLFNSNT

Variants of: B1
Settings: with jak2_mouse Jak2, Q62120

Variant	effect of a mutation on the interaction
R586K	disrupting interaction

Variants of: B2
Settings: with ptn1_human PTPN1, P18031

Variant	effect of a mutation on the interaction
R586K	disrupting interaction

Variants of: B2
Settings: with ptn1_human PTPN1, P18031
Remark: another data set of the same source

Variant	effect of a mutation on the interaction
P842K	disrupting interaction
